The numbers were not newly measured in patent US6518244B2, “Combinations of heparin cofactor II agonist and platelet IIb/IIIa antagonist, and uses thereof” (IntimaX Corporation, priority 2000, dated 2003), which cites them from elsewhere.

For the data set the following is noted: recipients of hirudin; cited from Huhle et al, Br. J. Haematol. (1999).

For hirudin, the “recipients in whom anti-hirudin antibodies are elicited” value is 74%.
